Measured values: patent publication US20240181094A1, “[161Tb]-BASED RADIOPEPTIDES” (priority 2021, published 2024)
Read-outs that look alike come from different tables or passages of the source. Starred links: 1 amine or outer side, 2 acyl side, 3 side chain; linkers in the order of their positions; H or OH if unused. Positions of bridges follow the written chain, without caps; N, C: chain ends. Non-standard residues stand in square brackets, D forms with d. Residues, ends and D or L forms follow the SMILES beside them. *: point of attachment. DOTA = O=C(O)CN1CCN(CC(=O)O)CCN(CC(=O)*)CCN(CC(=O)O)CC1; X1 = NC(=O)Nc1ccc(CC(N[*:1])C(=O)[*:2])cc1; Phe(4-Cl) = N[CH](Cc1ccc(Cl)cc1)C(=O)O

What was measured:
[1] = mouse, in vivo
Experimental: Early side effects were assessed based on the RBW of each mouse which was monitored every second day. When an endpoint was reached or at the end of the study (after 49 days), relevant organs and tissues were collected, weighed and put into relation to the brain mass and body weight of the respective mouse. This allowed comparison of organ-to-brain and organ-to-body mass weight ratios. In addition, blood plasma parameters from blood collected immediately after euthanasia were measured.
RBW, organ mass and mass ratios at the endpoint. The RBW was monitored every second day. Mice were euthanized when a predefined endpoint criterion was reached or when the study was terminated at Day 49. RBWs, organ masses, organ mass ratios (kidney-to-brain, liver-to-brain and spleen-to-brain) and organ mass to body weight ratios (kidney-to-body mass, liver-to-body mass and spleen-to-body mass) were analyzed for significance using a one-way ANOVA test with a Tukey's multiple comparisons post-test. A p-value of <0.05 was considered as statistically significant.
Blood plasma chemistry: Immediately before euthanasia of the mice that reached the endpoint, blood was sampled from the retrobulbar vein. The values of creatinine (CRE), blood urea nitrogen (BUN), alkaline phosphatase (ALP), total bilirubin (TBIL) and albumin (ALB) were determined in the plasma after centrifugation of the blood using a dry chemistry analyzer (DRI-CHEM 4000 i, FUJIFILM, Japan). The average blood plasma parameters of each group were analyzed for significance using a one-way ANOVA test with a Tukey's multiple comparisons post-test. A p-value of <0.05 was considered as statistically significant.

AR42J tumor-bearing mice [2] = conditions: 0.2 nmol/mouse
Experimental: Five-week-old female, athymic nude mice (CD-1 Foxn-1/nu) were obtained from Charles River Laboratories (Sulzfeld, Germany). Mice were subcutaneously inoculated with AR42 J tumor cells (5×10^6 cells in 100 μl PBS) for SPECT/CT imaging, biodistribution and therapy studies. The SPECT/CT and biodistribution studies were performed 10-14 days after tumor cell inoculation when the tumor size reached a volume of ˜250 mm^3.
The mice were sacrificed at 0.5 h, 2 h, 4 h, 24 h and 48 h p.i, selected tissues and organs were collected, weighed, and the accumulated activity was counted using a γ-counter (Perkin Elmer). The decay-corrected data were listed as % IA/g. The data were analyzed for significance using a two-way ANOVA with Tukey's multiple comparison post-tests. A p-value of <0.05 was considered statistically significant.

[3] = system: AR42 J tumor-bearing mice; experiment: Preclinical therapy study in AR42 J tumor-bearing mice; format: in vivo; conditions: 2 x 10 MBq
AR42J tumor-bearing mice [4] = experiment: Biodistribution studies: assessment of the optimum injected molar amount; conditions: 2 h p.i.

CC(O)C1NC(=O)C(CCCCN)NC(=O)C(Cc2ccc(NC(N)=O)cc2)NC(=O)C(Cc2ccc(O)cc2)NC(=O)C(NC(=O)C(Cc2ccc(Cl)cc2)NC(=O)CN2CCN(CC(=O)O)CCN(CC(=O)O)CCN(CC(=O)O)CC2)CSSCC(C(=O)NC(Cc2ccc(O)cc2)C(N)=O)NC1=O (stereo not drawn) [metal not drawn] ({DOTA}-[Phe(4-Cl)]CY[X1]KTCY-NH2; disulfide 2-7; configuration not given here)
ALB (albumin), plasma [1]: 22 ± 1 g/L
ALP (alkaline phosphatase), plasma [1]: 65 ± 15 U/L
Organ mass Brain [1]: 465 ± 30 mg
Organ mass Kidneys [1]: 332 ± 46 mg
Organ mass Liver [1]: 1275 ± 254 mg
Organ mass Spleen [1]: 85 ± 27 mg
Blood uptake (AR42J tumor-bearing mice [2]; 0.5 h p.i.): 1.3 ± 0.2 % IA/g
Blood uptake (AR42J tumor-bearing mice [2]; 2 h p.i.): ≤0.10 % IA/g
Muscle uptake (AR42J tumor-bearing mice [2]; 2 h p.i.): ≤0.10 % IA/g
Spleen uptake (AR42J tumor-bearing mice [2]; 2 h p.i.): 0.41 ± 0.08 % IA/g
Blood uptake (AR42J tumor-bearing mice [2]; 4 h p.i.): ≤0.10 % IA/g
Heart uptake (AR42J tumor-bearing mice [2]; 4 h p.i.): ≤0.10 % IA/g
Kidneys uptake (AR42J tumor-bearing mice [2]; 4 h p.i.): 9.0 ± 1.2 % IA/g
Muscle uptake (AR42J tumor-bearing mice [2]; 4 h p.i.): ≤0.10 % IA/g
Blood uptake (AR42J tumor-bearing mice [2]; 24 h p.i.): ≤0.10 % IA/g
Heart uptake (AR42J tumor-bearing mice [2]; 24 h p.i.): ≤0.10 % IA/g
Muscle uptake (AR42J tumor-bearing mice [2]; 24 h p.i.): ≤0.10 % IA/g
Blood uptake (AR42J tumor-bearing mice [2]; 48 h p.i.): ≤0.10 % IA/g
Heart uptake (AR42J tumor-bearing mice [2]; 48 h p.i.): ≤0.10 % IA/g
Muscle uptake (AR42J tumor-bearing mice [2]; 48 h p.i.): ≤0.10 % IA/g

C[C@@H](O)[C@@H]1NC(=O)[C@H](CCCCN)NC(=O)[C@@H](Cc2c[nH]c3ccccc23)NC(=O)[C@H](Cc2ccc(O)cc2)NC(=O)[C@@H](NC(=O)[C@@H](Cc2ccccc2)NC(=O)CN2CCN(CC(=O)O)CCN(CC(=O)O)CCN(CC(=O)O)CC2)CSSC[C@@H](C(=O)N[C@H](CO)[C@@H](C)O)NC1=O [[^177Lu]Lu-DOTATOC] [metal not drawn]
tumor growth delay ([3]; 0.2 nmol (Day 0, Day 7)): 6.0 ± 4.4 days
tumor doubling time ([3]; 0.2 nmol, regrowth phase, fitted exponential curve): 3.4 ± 0.8 days
ALB (albumin), plasma [1]: 24 ± 5 g/L
ALP (alkaline phosphatase), plasma [1]: 77 ± 8 U/L
BUN (blood urea nitrogen), plasma [1]: 6.3 ± 0.9 mmol/L
CRE (creatinine), plasma [1]: <18 µmol/L
Organ mass Brain [1]: 453 ± 31 mg
Organ mass Kidneys [1]: 342 ± 23 mg
Organ mass Liver [1]: 1121 ± 123 mg
Organ mass Spleen [1]: 90 ± 17 mg
AR42J Tumor uptake (AR42J tumor-bearing mice [4]; 0.040 nmol/mouse): 18 ± 3 % IA/g
Adrenals uptake (AR42J tumor-bearing mice [4]; 0.040 nmol/mouse): 0.65 ± 0.10 % IA/g
Blood uptake (AR42J tumor-bearing mice [4]; 0.040 nmol/mouse): ≤0.10 % IA/g
Femur uptake (AR42J tumor-bearing mice [4]; 0.040 nmol/mouse): 0.17 ± 0.05 % IA/g
Heart uptake (AR42J tumor-bearing mice [4]; 0.040 nmol/mouse): ≤0.10 % IA/g
Intestines uptake (AR42J tumor-bearing mice [4]; 0.040 nmol/mouse): 0.33 ± 0.05 % IA/g
Kidneys uptake (AR42J tumor-bearing mice [4]; 0.040 nmol/mouse): 10 ± 2 % IA/g
Liver uptake (AR42J tumor-bearing mice [4]; 0.040 nmol/mouse): 0.18 ± 0.02 % IA/g
Lung uptake (AR42J tumor-bearing mice [4]; 0.040 nmol/mouse): 1.1 ± 0.2 % IA/g
Muscle uptake (AR42J tumor-bearing mice [4]; 0.040 nmol/mouse): ≤0.10 % IA/g
Pancreas uptake (AR42J tumor-bearing mice [4]; 0.040 nmol/mouse): 1.9 ± 0.2 % IA/g
Spleen uptake (AR42J tumor-bearing mice [4]; 0.040 nmol/mouse): 0.39 ± 0.11 % IA/g
Stomach uptake (AR42J tumor-bearing mice [4]; 0.040 nmol/mouse): 1.7 ± 0.3 % IA/g
AR42J Tumor uptake (AR42J tumor-bearing mice [4]; 0.20 nmol/mouse): 17 ± 4 % IA/g
Adrenals uptake (AR42J tumor-bearing mice [4]; 0.20 nmol/mouse): 0.51 ± 0.35 % IA/g
Femur uptake (AR42J tumor-bearing mice [4]; 0.20 nmol/mouse): 0.10 ± 0.01 % IA/g
Heart uptake (AR42J tumor-bearing mice [4]; 0.20 nmol/mouse): ≤0.10 % IA/g
Intestines uptake (AR42J tumor-bearing mice [4]; 0.20 nmol/mouse): 0.40 ± 0.25 % IA/g
Kidneys uptake (AR42J tumor-bearing mice [4]; 0.20 nmol/mouse): 10 ± 3 % IA/g
Liver uptake (AR42J tumor-bearing mice [4]; 0.20 nmol/mouse): 0.15 ± 0.03 % IA/g
Lung uptake (AR42J tumor-bearing mice [4]; 0.20 nmol/mouse): 0.63 ± 0.03 % IA/g
Muscle uptake (AR42J tumor-bearing mice [4]; 0.20 nmol/mouse): ≤0.10 % IA/g
Pancreas uptake (AR42J tumor-bearing mice [4]; 0.20 nmol/mouse): 1.7 ± 0.5 % IA/g
Spleen uptake (AR42J tumor-bearing mice [4]; 0.20 nmol/mouse): 0.15 ± 0.02 % IA/g
Stomach uptake (AR42J tumor-bearing mice [4]; 0.20 nmol/mouse): 1.1 ± 0.2 % IA/g
AR42J Tumor uptake (AR42J tumor-bearing mice [4]; 1.0 nmol/mouse): 8.9 ± 1.5 % IA/g
Adrenals uptake (AR42J tumor-bearing mice [4]; 1.0 nmol/mouse): 0.28 ± 0.08 % IA/g
Blood uptake (AR42J tumor-bearing mice [4]; 1.0 nmol/mouse): ≤0.10 % IA/g
Femur uptake (AR42J tumor-bearing mice [4]; 1.0 nmol/mouse): ≤0.10 % IA/g
Heart uptake (AR42J tumor-bearing mice [4]; 1.0 nmol/mouse): ≤0.10 % IA/g
Intestines uptake (AR42J tumor-bearing mice [4]; 1.0 nmol/mouse): 0.20 ± 0.05 % IA/g
Kidneys uptake (AR42J tumor-bearing mice [4]; 1.0 nmol/mouse): 11 ± 1 % IA/g
Liver uptake (AR42J tumor-bearing mice [4]; 1.0 nmol/mouse): 0.26 ± 0.07 % IA/g
Lung uptake (AR42J tumor-bearing mice [4]; 1.0 nmol/mouse): 0.37 ± 0.06 % IA/g
Muscle uptake (AR42J tumor-bearing mice [4]; 1.0 nmol/mouse): ≤0.10 % IA/g
Pancreas uptake (AR42J tumor-bearing mice [4]; 1.0 nmol/mouse): 0.80 ± 0.13 % IA/g
Spleen uptake (AR42J tumor-bearing mice [4]; 1.0 nmol/mouse): 0.15 ± 0.03 % IA/g
Stomach uptake (AR42J tumor-bearing mice [4]; 1.0 nmol/mouse): 0.65 ± 0.11 % IA/g
kidney uptake (AR42J tumor-bearing mice [4]; irrespective of the injected amount of peptide): ~10 % IA/g
